Test results: the nanobody polyreactivity screen of Harvey et al. (2022)

Experiment: yeast display, Sf9 membrane polyspecificity reagent, FACS + sequencing; frameworks hold sequencing errors
Summary of the method: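 Using colony PCR, genes from sorted yeast display clones were amplified, then sequenced on MiSeq at 2 × 250 and filtered by CDR length. The clones had been stained with 10% biotinylated, detergent-solubilized Sf9 membrane reagent for 1 hour at 4 °C and sorted by FACS into low and high (top ~1%) gates on anti-HA and streptavidin fluorescence. Polyreactivity labels come from the gate of origin.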

QVQLVESGGGLDQAGGSLRLSCAASGITFPGYAMGWYRQAPGKERELVAAIDWSGDGTYYADSVKGRFTISRDNAKNTVYLQMNSLKPEDTAVYYCAKDNYPNHSTVLAVIYDYWGQGTQVTVSS
polyreactivity (PSR sort gate): low polyreactivity

QDQLVESGGGLVQAGGSLRLSCAASGSIFDVNAMGWYRQAPGKERELVAAISDSGGSTYYADSVKGRFTISRDNAKNTVYLQMNSLKPEDTAVYYCNADWSWYNYYDFDYWGQGTQVTVSS
polyreactivity (PSR sort gate): low polyreactivity

QVHLVVSGGGLVQAGRSLRLICAASGSTFKAYAMGWYRQAPGKERELVAAITRRGTSTYYADSVKGRFTISRDNAKKTVYLQMNSLKPEDTADYYSNAKYVSDRSSAVSFDYWGQGTQVTVSS
polyreactivity (PSR sort gate): low polyreactivity

QVQLVESGGGLVQAGGSLRLSCAASGRIFLRNDMGWYRQAPGKERELVAGISSDGSTYYADSVKGRFTISRDNAKNTVYLQMNSLKPEDTAVDYCARYGTDHRLGYGYWGQGTQVTVSS
polyreactivity (PSR sort gate): low polyreactivity

QVQLVESGGGLVQAGGSLRLSCAASGRIFAVNAMGWYRQAPGKERELVAAISWSGGITRYADSVKGRFTISRDNAKNTVYLQMNSLKPEDTAVYYCNASQWPSRFDYWGQGTQVTVSS
polyreactivity (PSR sort gate): low polyreactivity

QVQLVESGGGLVQAGGSLRLSCAASGSISGLNAMGWYRQAPGKERELVAAISRSGGRTYYADSVKGRFTISRDNAKNTVYLQMNSLKPEDTAVYYCAAVTTWRMDYWGQGTQVTVSS
polyreactivity (PSR sort gate): high polyreactivity

QVQLVESGGGLVQAGGSLRLSCAASGFTFPNYAMGWYRQAPGKERELVAAISRRGGRTYYADSVKGRFTISRDNAKNTVYLQMNSLKPEDTAVYYCATEYRGDGPKYDYWGQGTQVTVSS
polyreactivity (PSR sort gate): high polyreactivity

QVQLVESGGGLVQAGGSLRLSCAASGSTFSDNAMGWYRQAPGKEREFVAAINETGGSTYYADSVKGRFTISRDNAKNTVYVQMNSLKPEDTAVYYCNADIDPYGATYAIEYDYWGQGTQVTVSS
polyreactivity (PSR sort gate): low polyreactivity

QVQLEDSGGGLVQAGGSLRLICAASGSIFGYYAMGWDRQAPGKERELVAAIDSGGSTYYADSVKGRFTISRDNAKNTVYLQMNSLKPEDTAVYYCAAGVSSFSPYDSWGQGTQVTVSS
polyreactivity (PSR sort gate): low polyreactivity

QVQLVESGGGLVQAGGSLRLSCAASGFTFSDYVMGWYRQAPGKERELVAVITSGSSTYYADSVKGRFTISRDNAKNTVYLQMNSLKPEDTAVYYCNADPDDGYFSDFDYWGQGTQVTVSS
polyreactivity (PSR sort gate): low polyreactivity

QVQLVESGGGLVQAGGSLRLSCAASGSIFLYYAMGWYRQAPGKVRALLAAISWDGGSTYYADSVKGRFTISRDNAKNTVYLQMNSLKPEDTAVYYCNKAPYYYLPHSLRYNYWGQGTQVTVSS
polyreactivity (PSR sort gate): high polyreactivity

QVQLVESGGGLVQAGGSLRLSCAASGFIFSQNVMGWYRQAPGKERELVAAISSSGGSTYYADSVKGRFTISRDNAKNTVYLQMNSLKREDTAVYYCAARPYVRFNYWGQGTQVTVSS
polyreactivity (PSR sort gate): high polyreactivity

QDALVESCGGLVQAGGSLRLICAASGSTFDTYALGWYRQAPAKEWELVAGISWSGGSTFFADSVKGRFTISRDNAKNTVSLQMNSLKPEDTAVYDCAKQLWVGVKYDYWGQGPQVTVSS
polyreactivity (PSR sort gate): low polyreactivity

QVQLVESGGGLVQAGGSLRLSCAASGYTFRYYAMGWYRQAPGKERELVAAINWSGGSTYYADSVKGRFTISRDNAKNTVYLQMNSLKPEDTAVYYCAADPDGDLDIDYDYWGQGTQVTVSS
polyreactivity (PSR sort gate): low polyreactivity

QVQLVESGGGLVQAGGSLRLSCAASGITFSYYAMGWYRQAPGKEREFVAAINWDGGSTYYADSVKGRFTISRDNAKNTVYLQMNSLKPEDTAVYYCNADEFEYIYVDTLNYGDDYWGQGTQVTVSS
polyreactivity (PSR sort gate): low polyreactivity

QVQLVESGGGLVQAGGSLRLSCAAYGYIIDRYAMGWYRPAPGKERELVAAISSDGSTYYADSVKGRFTISRDNAKNTVYLQMNSLKPEDTAVYYGAADGGESAWGGYDYWGQGSQVTVSS
polyreactivity (PSR sort gate): low polyreactivity

QVQLVESGGGLVQAGGSLRLSCAASGIIFYNKAMGWYRQAPGKERELVAAITWSDGSTYYADSVKGRFTISRDNAKTTVYLQMNSMKPEDTAVYYCARRSGDERRDGDYWGQGTQVTVSS
polyreactivity (PSR sort gate): low polyreactivity

QDQLVESGGGLVQAGGSLRLSCAASGFTFSVNAMGWYRQAPGKERELVAAITRGRSTSYADSVKGRFTISRDNAKNTVYLQKNSLKPEDTAVYYCAASYSGGTWSGYYYWGQGTQVTVSS
polyreactivity (PSR sort gate): high polyreactivity

QVQLVESGGGLVQAGGSLRLSCAASGSIFTFYAMGWYRQAPGKERELVATINRIGGNTYYADSVKGRFTISRDNAKNTVYFQMNSLKPEDTAVYYCAADRSAWGSNWETQFDYWGQGTQVTVSS
polyreactivity (PSR sort gate): low polyreactivity

QVQLVESGGGLVQAGGSLRLSCAASGITFSVYAMGWYRQAPGKERELVAAISGSGGSTYYADSVKGRFTISRDNAKNTVYLQMNSLKPEDTAVYYCAARLAQKYSPTRYNYWGQGTQVTVSS
polyreactivity (PSR sort gate): high polyreactivity

QVQLVESGGGLVQAGGSLRLSCAASGSIFSFNAMGWYRQAPGKERELVAAISWRGASTYYADSVKGRFTISRDNAKNTVYLQMNSLKPEDTAVYYCAAESTFILQYSYIYYDGHYDYWGQGTQVTVSS
polyreactivity (PSR sort gate): low polyreactivity

QVQLEESGGGLVQAGGSLRLSWAASGITFAYYAMGWYRQAPGKERELVAAINYNGGRTYYADSVKGRFTISRDNAKNTVYLQMNSLKPEDTAVYYCAARGYRHFYYWGQGTQVTVSS
polyreactivity (PSR sort gate): high polyreactivity

QVHLVESGGGLVQAGGSLRLSCAASGRIFAKNAMGWYRQAPGKERELVAAINHSGGSTYYADSVKGRFTISRDYAKNTVYLQMNSLNPEDTAVYYCDARGLTTRSPFYYWGQGTQVTVSS
polyreactivity (PSR sort gate): high polyreactivity

QVQLVESGGGLVQAGGSLRLSCAASGRIFRYYAMGWYRQAPGKERELVAAIRGGGSTYYADSVKGRFTISRDNAKNTVYLQMNSLKPEDTAVYYCAAPLIISTLWYKRYDYWGQGTQVTVSS
polyreactivity (PSR sort gate): high polyreactivity

QVQLVESGGGLVQAGGSLRLSCAASGRIFRSYVMGWYRQAPGKERELVAVISKNGGTTYYADSVKGRFTISRDNAKNTVYLQMNSLKPEDTAVYYCAADFRYRSQPGWGARRNGYYWGQGTQVTVSS
polyreactivity (PSR sort gate): high polyreactivity

QVQLVESGGGLVQAGGSLRLSCAASGRTFTYNAMGWYRQAPGKERELVASITWSGGRTYYADSVKGRFTISRDNAKNTVYLQMNSLKPEDTAVYYCAAYRWWGYITGVRGAKSIFDYWGQGTQVTVSS
polyreactivity (PSR sort gate): high polyreactivity

QVQLVESGGGLVQAGGSLRLSCAASGFTFWEYAMGWYRQAPGKERELVAAISSRGTRTYYADSVKGRFTISRDNAKNTVYLQMNSLKPEDTAVYYCATAIPDPDYIHNYWGQGTQVTVSS
polyreactivity (PSR sort gate): high polyreactivity

QVQLVESGGGLVQAGGSLRLSCAASGGIFPLNAMGWYRQAPGKERELVAAISRRGGSTYYADSVKGRFTISRDNAKNTVYLQMNSLKPEDTAVYYCAAVTVRKFYKGINYWYEYWGQGTQVTVSS
polyreactivity (PSR sort gate): high polyreactivity

QVQLVESGGGLVQAGGSLRLSCAASGRIFWNYAMGWYRQAPGKERELVAAITWSGGSTYADSVNGRFTISRDNAKYTVYLQMNSLKPEDTAEYYCAAAYASYKFDYWGQGTQVTVSS
polyreactivity (PSR sort gate): low polyreactivity

QVQLVESGGGLVQAGGSLRLSCAASGSTFGPYAMGWYRQAPGKERELVAAIDKSGGSTYYADSVKGRFTISRDNAKNTVYLQMNSLKPEDTAVYYCAVEKRYPRRRYDYWGQGTQVTVSS
polyreactivity (PSR sort gate): low polyreactivity

QVQLVESGGGLVQAGGSLRLSCAASGITFLNYAMGWSRQEPGKERELVAAITSGGSTYYADSVKGRFTITRDNAKNTVYLQMNSLKPEDTAVYYCAADGDSLPYSFWWQIRLDYWGQGTVVTVSS
polyreactivity (PSR sort gate): low polyreactivity

QVQLVESGGGLVQAGGSLRLSCAASGSIFTPYAMGWYRQAPGKERELVADIDASGGGTYADSVKGRFTISRDNAKNTVYLQMNSLKPEDTAVFYCNADTGIWDYRFVDRDYWGQGTQVTVSS
polyreactivity (PSR sort gate): low polyreactivity

QVQLVESGGGLVQAGGSLRLSCAASGFTSHSYAMGWYRKAPGKERELVAAINGDGGSTYYADSVKGRFTISRDNAKNTLYLQMNSLKPEDTAVYYCAAETAYWYYWGQGSQVTVSS
polyreactivity (PSR sort gate): high polyreactivity

QVQLVESGGGLVQAGGSLRISCAASGSTLQYYAMGWYRQAPGKERELVAAISWRGARTYYADSVKGRFTISRDNAKNTVYLQMNSLKPQDTAVYYCAAVYGSRGYAGNYYWGHGTQVTVSS
polyreactivity (PSR sort gate): high polyreactivity

QVQLVESGGGLVQAGGSLRLSCAASGSTIYWYAMGWYRQAPGKERELVAAITDSGDDTYYADSVKGRFTISRDNAKKTVYLQMNSLKPVDTAVYYCAGEAWSVAPYEYWGQGTQVTVSS
polyreactivity (PSR sort gate): low polyreactivity

QVQLVESGGGLVQAGGSLRLSCAASGSTFRSYAMGWYRQAPGKEREFVAALSSSDDSSYYADSVKGRFTISRDNAKNTVYLQMNSLKPEDTAVYYCAARPWNDGYYVGRFHMDYWGQGTQVTVSS
polyreactivity (PSR sort gate): low polyreactivity

QVQLVESGGGLVQAGGSLRLSCAASGSIFQAYAMGWYRQAPGKERELVASISQSGDSTYYADSVKGRFTISRDNAKNTVYLQMNSLKPEDTAVYYCAAVQYGHRRGRVSVRRRLDYWGQGTQVTVSS
polyreactivity (PSR sort gate): low polyreactivity

QVQLVESRGGLVQAGGSLRLSCAASGSTFFYNAMGWYRQAPGKEREFVAAITNGVITNYADSVKGRFTISRDNAKNTVYLQMNSLKPEDTAVYYCAALRWSPRSRYQYNYWGQGTQVTVSS
polyreactivity (PSR sort gate): high polyreactivity

QVQLGETRGGLVQAGGSLRLSCAASASIFAPYAMGGYRQAPGKERELVAAITWSGDSTYYADSVKGRFTISRDNAKYTVYLQMNSLKPEDTAVYYCATEEVYGQGNYWGQGTQVTVSS
polyreactivity (PSR sort gate): low polyreactivity

QVQLVESGGGIVQAGGSLRLSCAASGSTSSSDDMGWYRQAPGQERELVADITSGGRTYYADSVKGRFTISRDNAKNTVYLQMNSLKPEATAVYYCAADTIEHYSLVTPTQGKFDSWGQGTQVTVSS
polyreactivity (PSR sort gate): low polyreactivity

QVQHVESGGGLVQAGGSLRLSCAASGRIFPFNAMGCYRQAPGKETEFVAAIRLSGTRTYYADSVKGRFTISRDNAKNTVYLQMNCLNPEDTAVYYCAAKFSGHYYNYDYWGQGTQVTVSS
polyreactivity (PSR sort gate): high polyreactivity

QVQLVESGGGLVQAGGSLRLSCAASGSIFPLYVMGWYRQAPGKERELVAAISSAADTYYADSVKGRFTISRDNAKNTVYLQMNSLKPEDTAVYYCAAAVLYWVGYGYWGQGTQVTVSS
polyreactivity (PSR sort gate): low polyreactivity

QVQLVESGGGLVQAGGSLRLSFGASGLNFGWYAMGWYRKAPGKERELVAAITYDGDSTYYADSVKGRFTISRDNAKNTVYFQMNSLKPEDTAFYYCAGEYGYGEMDSWGQGTQVTVTS
polyreactivity (PSR sort gate): high polyreactivity
